Measurements from patent US20150030597A1 (US Dept. of Health and Human Services, published 2015).

B1: DC101-CD828Z CAR (other)
chain: EVQLVETGGGLVQPGNSLKLSCATSGFIFSTTWMNWIRQTPGKRLEWLAQIEDKSNNYFISYSESVKGRFTISRDDSKSSVYLQMNNLKEEDTAIYYCSWKYRSNYYFDYWGQGVMVTVSSGSTSGSGKPGSGEGSDIVLTQSPALAVSLEQRATISCKTSQNVDYYGISYLHWYQQKPGQQPKLLIYEGSNLASGIPARFSGSGSGTDFTLTIDPVEADDIVTYYCQQSKDYPYTFGAGTKLELKAAATTTKPVLRTPSPVHPTGTSQPQRPEDCRPRGSVKGTGLDFACDIYIWAPLAGICVALLLSLIITLICYHRSRNSRRNRLLQVTTMNMTPRRPGLTRKPYQPYAPARDFAAYRPRAKFSRSAETAANLQDPNQLYNELNLGRREEYDVLEKKRARDPEMGGKQQRRRNPQEGVYNALQKDKMAEAYSEIGTKGERRRGKGHDGLYQGLSTATKDTYDALHMQTLAPR
notes: Chimeric antigen receptor on transduced primary mouse T cells: same as DC101-CD828BBZ but without the 4-1BB signalling domain; also called DC101-mCD828Z; MSGV-DC101-CD828Z
B2: DC101-CD828BBZ CAR (other)
chain: EVQLVETGGGLVQPGNSLKLSCATSGFIFSTTWMNWIRQTPGKRLEWLAQIEDKSNNYFISYSESVKGRFTISRDDSKSSVYLQMNNLKEEDTAIYYCSWKYRSNYYFDYWGQGVMVTVSSGSTSGSGKPGSGEGSDIVLTQSPALAVSLEQRATISCKTSQNVDYYGISYLHWYQQKPGQQPKLLIYEGSNLASGIPARFSGSGSGTDFTLTIDPVEADDIVTYYCQQSKDYPYTFGAGTKLELKAAATTTKPVLRTPSPVHPTGTSQPQRPEDCRPRGSVKGTGLDFACDIYIWAPLAGICVALLLSLIITLICYHRSRNSRRNRLLQVTTMNMTPRRPGLTRKPYQPYAPARDFAAYRPKWIRKKFPHIFKQPFKKTTGAAQEEDACSCRCPQEEEGGGGGYELRAKFSRSAETAANLQDPNQLYNELNLGRREEYDVLEKKRARDPEMGGKQQRRRNPQEGVYNALQKDKMAEAYSEIGTKGERRRGKGHDGLYQGLSTATKDTYDALHMQTLAPR
notes: also called DC101-mCD828BBZ; MSGV-DC101-CD828BBZ
B3: DC101-CD8 (other)
chain: EVQLVETGGGLVQPGNSLKLSCATSGFIFSTTWMNWIRQTPGKRLEWLAQIEDKSNNYFISYSESVKGRFTISRDDSKSSVYLQMNNLKEEDTAIYYCSWKYRSNYYFDYWGQGVMVTVSSGSTSGSGKPGSGEGSDIVLTQSPALAVSLEQRATISCKTSQNVDYYGISYLHWYQQKPGQQPKLLIYEGSNLASGIPARFSGSGSGTDFTLTIDPVEADDIVTYYCQQSKDYPYTFGAGTKLELKTTTKPVLRTPSPVHPTGTSQPQRPEDCRPRGSVKGTGLDFACDIYIWAPLAGICVALLLSLIITLICYHRSR
notes: also called MSGV-DC101-CD8

Columns and labels:
[1] = molecular target: T1, soluble mouse VEGFR2-hIgG.FC fusion protein (mouse; human, UniProt P35918 20-762); test: flow cytometry, transduced mouse CD3+CD4+ T cells stained with soluble mVEGFR2-hIgG.FC and PE anti-human IgG-FC; mean ± SEM of 5 experiments
T1 construct: Bought from R&D Systems; also called soluble mouse VEGFR-2-human IgG-FC fusion protein; mVEGFR2-hIgG.FC; not shown: human IgG Fc
T1 sequence (P35918 20-762 limits assumed): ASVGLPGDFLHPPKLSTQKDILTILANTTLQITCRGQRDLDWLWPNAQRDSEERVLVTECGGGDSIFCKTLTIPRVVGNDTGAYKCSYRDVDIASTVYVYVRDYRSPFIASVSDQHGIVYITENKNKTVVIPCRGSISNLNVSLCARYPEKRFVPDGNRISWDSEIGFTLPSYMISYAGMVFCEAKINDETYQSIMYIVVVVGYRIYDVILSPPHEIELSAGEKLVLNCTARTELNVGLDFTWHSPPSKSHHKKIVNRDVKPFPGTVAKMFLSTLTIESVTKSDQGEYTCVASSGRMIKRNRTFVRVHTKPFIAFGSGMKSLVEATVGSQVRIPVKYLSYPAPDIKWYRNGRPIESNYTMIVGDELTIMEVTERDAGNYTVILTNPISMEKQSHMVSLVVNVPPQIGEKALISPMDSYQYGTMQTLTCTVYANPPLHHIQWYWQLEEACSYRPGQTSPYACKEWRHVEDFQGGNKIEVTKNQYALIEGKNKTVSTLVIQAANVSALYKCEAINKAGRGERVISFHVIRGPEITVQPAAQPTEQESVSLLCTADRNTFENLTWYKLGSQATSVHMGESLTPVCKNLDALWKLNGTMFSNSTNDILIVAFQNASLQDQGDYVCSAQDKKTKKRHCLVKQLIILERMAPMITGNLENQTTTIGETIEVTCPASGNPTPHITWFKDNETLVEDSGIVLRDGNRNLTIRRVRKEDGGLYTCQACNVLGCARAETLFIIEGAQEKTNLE
Method: (§1) Mouse T cells were retrovirally transduced with retroviral vectors DC101-CD828Z or DC101-CD828BBZ CAR as described in Example 5 or were transduced with the DC101-CD8 or SP6-CD828BBZ vectors described in Comparative Example 1, or with an empty MSGV vector (lacking any of the CAR sequences). Surface expression of the retrovirally encoded transgene products in transduced CD3⁺ primary mouse T cells was determined by flow cytometry using the soluble mouse VEGFR-2-human IgG-FC fusion protein and PE-conjugated anti-human IgG-FC.
(§2) On day 4 post-transduction, cells were costained with anti-mouse CD8 antibody and CAR-specific reagents and were FACS analysed to determine the expression of transgene products in CD8⁺and CD8″ T cell subsets. Detection of DC101 CAR on retrovirally transduced mouse T cells on day 4 after transduction was achieved by indirect immunofluorescence with soluble mouse (m) VEGFR2-hIgG.FC fusion protein (R&D Systems®, Minneapolis, […].), followed by staining with a phycoerythrin (PE)-labeled goat anti-human IgG-FC antibody (eBioscience™, San Diego, Calif.). Briefly, 5×10⁵ cells were incubated with 2 μg of bovine serum albumin (BSA; Sigma-Aldrich®) or species-specific soluble mVEGFR2-hIgG.FC protein at 4° C. for 45 min. Cells were then washed in FACS buffer (phosphate buffered saline containing 1% FBS) and stained with PE-conjugated anti human IgG-FC (αchIgG.FC). At this step, mouse T cells were co-stained with peridinin chlorophyll (PerCP)-labeled anti-mouse CD8 (BD Pharmingen, San Diego, Calif.) at appropriate concentrations recommended by the manufacturer at 4° C. for 20-30 min, then washed and resuspended in FACS buffer. Cells incubated with 2 μg bovine serum albumin (BSA) and subsequently stained with PE-conjugated anti human IgG-FC (αhIgG-FC) and PerCP labeled anti-mouse CD8 served as a control.

[2] = molecular target: T1, soluble mouse VEGFR2-hIgG.FC fusion …; test: flow cytometry, transduced mouse CD3+CD8+ T cells stained with soluble mVEGFR2-hIgG.FC and PE anti-human IgG-FC; mean ± SEM of 5 experiments
Method: as §1, §2

| Binder | % Transduction (percent transgene positive cells) [1] | Mean Fluorescence Intensity (MFI) [1] | % Transduction (percent transgene positive cells) [2] | Mean Fluorescence Intensity (MFI) [2] |
| --- | --- | --- | --- | --- |
| B1 | 84% | 95 | 86% | 92 |
| B2 | 79% | 76.5 | 78.2% | 75.8 |
| B3 | 83.2% | 114 | 80.8% | 108 |
